For the data set, the system named is Escherichia coli TOP10. Briefly: shrunken log2 fold change of peptide-encoding DNA abundance (4.5 h post-induction vs induction); higher = less antimicrobial activity (less host growth inhibition). As to conditions: time post-induction: 4.5 h; library: site-saturation at positions 5, 18, 19, 20.
RRIRFRPPRLPRPRPRPKIGPRP: the “shrunken log2 fold change” value is -0.0769.

As for RRIRKRPPRLPRPRPRPDGRPRP, the “shrunken log2 fold change” value turned out to be 0.0261.

For RRIRWRPPRLPRPRPRPFEPPRP, the “shrunken log2 fold change” value was 1.2.

With RRIRDRPPRLPRPRPRPWPNPRP, the “shrunken log2 fold change” value was 0.0619.

RRIRPRPPRLPRPRPRPLQEPRP: the “shrunken log2 fold change” value came to 0.18.

For the sequence RRIRNRPPRLPRPRPRPDKVPRP, the “shrunken log2 fold change” value is -0.00145.

As to RRIRARPPRLPRPRPRPTWAPRP, the “shrunken log2 fold change” value was 0.621.

In the case of RRIRQRPPRLPRPRPRPYTNPRP, the “shrunken log2 fold change” value was -0.149.

With RRIRHRPPRLPRPRPRPQWLPRP, the “shrunken log2 fold change” value was 0.134.

Consider RRIRTRPPRLPRPRPRPPNQPRP, for which the “shrunken log2 fold change” value is 0.185.

Take RRIRMRPPRLPRPRPRPHYRPRP: the “shrunken log2 fold change” value was -0.223.

Consider RRIRGRPPRLPRPRPRPSFHPRP, for which the “shrunken log2 fold change” value is -0.17.

As for RRIRLRPPRLPRPRPRPHVSPRP, the “shrunken log2 fold change” value was found to be 0.00444.

Regarding RRIRWRPPRLPRPRPRPFVLPRP, the “shrunken log2 fold change” value came to 0.231.

On to RRIRKRPPRLPRPRPRPWGQPRP, for which the “shrunken log2 fold change” value was 0.0379.

Consider RRIRARPPRLPRPRPRPDQPPRP, for which the “shrunken log2 fold change” value was 0.0452.

In the case of RRIRIRPPRLPRPRPRPDCVPRP, the “shrunken log2 fold change” value is -0.0493.

For the sequence RRIRPRPPRLPRPRPRPDYEPRP, the “shrunken log2 fold change” value is -0.136.

Take RRIRFRPPRLPRPRPRPKSYPRP: the “shrunken log2 fold change” value was -0.201.

Turning to RRIRPRPPRLPRPRPRPWICPRP, the “shrunken log2 fold change” value is -0.182.

In the case of RRIRDRPPRLPRPRPRPFCWPRP, the “shrunken log2 fold change” value stood at 0.445.

For the sequence RRIRVRPPRLPRPRPRPNPDPRP, the “shrunken log2 fold change” value is -0.0161.

Consider RRIRQRPPRLPRPRPRPTQAPRP, for which the “shrunken log2 fold change” value was determined as 0.186.

Regarding RRIRVRPPRLPRPRPRPKFHPRP, the “shrunken log2 fold change” value amounted to 0.678.

As for RRIRERPPRLPRPRPRPLPHPRP, the “shrunken log2 fold change” value is -0.438.

On to RRIRIRPPRLPRPRPRPNVCPRP, for which the “shrunken log2 fold change” value is -0.204.

As to RRIRERPPRLPRPRPRPIKNPRP, the “shrunken log2 fold change” value was -1.13.

For the sequence RRIRSRPPRLPRPRPRPIMCPRP, the “shrunken log2 fold change” value is -0.572.

Regarding RRIRQRPPRLPRPRPRPDCPPRP, the “shrunken log2 fold change” value is -0.283.

With RRIRSRPPRLPRPRPRPDWQPRP, the “shrunken log2 fold change” value is -0.162.

On to RRIRVRPPRLPRPRPRPQFHPRP, for which the “shrunken log2 fold change” value was -0.186.

Take RRIRSRPPRLPRPRPRPFKMPRP: the “shrunken log2 fold change” value was -0.357.

On to RRIRGRPPRLPRPRPRPEGWPRP, for which the “shrunken log2 fold change” value is 1.99.

In the case of RRIRGRPPRLPRPRPRPYKYPRP, the “shrunken log2 fold change” value is -0.346.

Take RRIRYRPPRLPRPRPRPQQKPRP: the “shrunken log2 fold change” value is 0.0376.

In the case of RRIRWRPPRLPRPRPRPSWYPRP, the “shrunken log2 fold change” value is -0.239.

For the sequence RRIRLRPPRLPRPRPRPASFPRP, the “shrunken log2 fold change” value was -0.0339.

With RRIRPRPPRLPRPRPRPPIHPRP, the “shrunken log2 fold change” value is -0.039.

RRIRDRPPRLPRPRPRPLQTPRP: the “shrunken log2 fold change” value came out at 0.135.

Regarding RRIRWRPPRLPRPRPRPHKLPRP, the “shrunken log2 fold change” value was -0.135.

With RRIRVRPPRLPRPRPRPSIDPRP, the “shrunken log2 fold change” value was -0.455.

As for RRIRARPPRLPRPRPRPDGEPRP, the “shrunken log2 fold change” value was 0.209.

For RRIRERPPRLPRPRPRPPKDPRP, the “shrunken log2 fold change” value is 0.00712.

Consider RRIRHRPPRLPRPRPRPIDFPRP, for which the “shrunken log2 fold change” value stood at 0.0271.

For the sequence RRIRARPPRLPRPRPRPSGGPRP, the “shrunken log2 fold change” value stood at 0.115.

Regarding RRIRQRPPRLPRPRPRPSFVPRP, the “shrunken log2 fold change” value was -0.161.

As to RRIRYRPPRLPRPRPRPPNYPRP, the “shrunken log2 fold change” value is -0.523.

Regarding RRIRIRPPRLPRPRPRPDGPPRP, the “shrunken log2 fold change” value was -0.0369.

For the sequence RRIRWRPPRLPRPRPRPRPSPRP, the “shrunken log2 fold change” value is 0.766.

In the case of RRIRHRPPRLPRPRPRPLVCPRP, the “shrunken log2 fold change” value is -9.35e-05.

As for RRIRIRPPRLPRPRPRPWFMPRP, the “shrunken log2 fold change” value is -0.503.

Turning to RRIRGRPPRLPRPRPRPLSRPRP, the “shrunken log2 fold change” value was found to be 1.17.

Turning to RRIRERPPRLPRPRPRPYSEPRP, the “shrunken log2 fold change” value was -0.157.

As to RRIRARPPRLPRPRPRPEMRPRP, the “shrunken log2 fold change” value worked out at 1.19.

With RRIRGRPPRLPRPRPRPECDPRP, the “shrunken log2 fold change” value was determined as 2.16.

Turning to RRIRQRPPRLPRPRPRPLCSPRP, the “shrunken log2 fold change” value was -0.0385.

For the sequence RRIRNRPPRLPRPRPRPQLGPRP, the “shrunken log2 fold change” value was -0.124.

As for RRIRQRPPRLPRPRPRPSVRPRP, the “shrunken log2 fold change” value was -0.309.

As to RRIRPRPPRLPRPRPRPIRWPRP, the “shrunken log2 fold change” value is -0.0338.

For the sequence RRIRLRPPRLPRPRPRPIFIPRP, the “shrunken log2 fold change” value was 0.606.

Take RRIRARPPRLPRPRPRPRSSPRP: the “shrunken log2 fold change” value turned out to be 0.188.

Consider RRIRFRPPRLPRPRPRPVPHPRP, for which the “shrunken log2 fold change” value was -0.342.

With RRIRRRPPRLPRPRPRPHMHPRP, the “shrunken log2 fold change” value was -0.083.

Regarding RRIRHRPPRLPRPRPRPDYQPRP, the “shrunken log2 fold change” value is -0.0951.

Turning to RRIRLRPPRLPRPRPRPEKVPRP, the “shrunken log2 fold change” value was -0.0389.

For RRIRHRPPRLPRPRPRPFTNPRP, the “shrunken log2 fold change” value is -0.0272.

In the case of RRIRDRPPRLPRPRPRPGRHPRP, the “shrunken log2 fold change” value is 0.186.

Turning to RRIRSRPPRLPRPRPRPMSWPRP, the “shrunken log2 fold change” value is 0.0314.

For RRIRIRPPRLPRPRPRPQHQPRP, the “shrunken log2 fold change” value is -0.344.

RRIRMRPPRLPRPRPRPPDVPRP: the “shrunken log2 fold change” value is 0.00748.

Regarding RRIRCRPPRLPRPRPRPWGIPRP, the “shrunken log2 fold change” value is -0.59.

Consider RRIRCRPPRLPRPRPRPYLEPRP, for which the “shrunken log2 fold change” value was -0.208.

Turning to RRIRHRPPRLPRPRPRPISTPRP, the “shrunken log2 fold change” value is -0.578.

As to RRIRDRPPRLPRPRPRPKHIPRP, the “shrunken log2 fold change” value was -0.236.

Take RRIRVRPPRLPRPRPRPWAQPRP: the “shrunken log2 fold change” value was -0.365.

For the sequence RRIRNRPPRLPRPRPRPKWDPRP, the “shrunken log2 fold change” value is 0.0992.

For RRIRKRPPRLPRPRPRPEYFPRP, the “shrunken log2 fold change” value is 0.084.

Turning to RRIRRRPPRLPRPRPRPFHQPRP, the “shrunken log2 fold change” value is -0.191.

Consider RRIRSRPPRLPRPRPRPFWQPRP, for which the “shrunken log2 fold change” value amounted to 0.909.

For RRIRNRPPRLPRPRPRPTVQPRP, the “shrunken log2 fold change” value was -0.179.

With RRIRWRPPRLPRPRPRPRAVPRP, the “shrunken log2 fold change” value was determined as 0.521.

As for RRIRCRPPRLPRPRPRPGIYPRP, the “shrunken log2 fold change” value was -0.0438.

As for RRIRPRPPRLPRPRPRPQIWPRP, the “shrunken log2 fold change” value turned out to be 0.0101.

Turning to RRIRERPPRLPRPRPRPQWPPRP, the “shrunken log2 fold change” value is -0.0675.

As to RRIRIRPPRLPRPRPRPFKMPRP, the “shrunken log2 fold change” value is -0.568.

On to RRIRDRPPRLPRPRPRPNYTPRP, for which the “shrunken log2 fold change” value is -0.771.

Regarding RRIRVRPPRLPRPRPRPRNNPRP, the “shrunken log2 fold change” value was -0.425.

As for RRIRPRPPRLPRPRPRPKWDPRP, the “shrunken log2 fold change” value was 0.319.

Take RRIRDRPPRLPRPRPRPDKIPRP: the “shrunken log2 fold change” value came out at 0.231.

In the case of RRIRVRPPRLPRPRPRPQAAPRP, the “shrunken log2 fold change” value is 0.0662.

For the sequence RRIRKRPPRLPRPRPRPCNSPRP, the “shrunken log2 fold change” value is -0.0179.

RRIRTRPPRLPRPRPRPLIRPRP: the “shrunken log2 fold change” value was -0.133.

In the case of RRIRRRPPRLPRPRPRPMCQPRP, the “shrunken log2 fold change” value worked out at 0.254.

Consider RRIRIRPPRLPRPRPRPDVGPRP, for which the “shrunken log2 fold change” value is -0.284.

As to RRIRNRPPRLPRPRPRPMFEPRP, the “shrunken log2 fold change” value was determined as 0.29.

As to RRIRERPPRLPRPRPRPQRAPRP, the “shrunken log2 fold change” value worked out at 0.254.

With RRIRKRPPRLPRPRPRPLIKPRP, the “shrunken log2 fold change” value was -0.338.

Regarding RRIRIRPPRLPRPRPRPLWDPRP, the “shrunken log2 fold change” value was -0.113.

On to RRIRARPPRLPRPRPRPNVAPRP, for which the “shrunken log2 fold change” value came to 0.477.

RRIRPRPPRLPRPRPRPMWSPRP: the “shrunken log2 fold change” value was -0.276.

Consider RRIRDRPPRLPRPRPRPPKAPRP, for which the “shrunken log2 fold change” value was -0.122.

Turning to RRIRQRPPRLPRPRPRPHTIPRP, the “shrunken log2 fold change” value was -0.412.

Turning to RRIRKRPPRLPRPRPRPWHKPRP, the “shrunken log2 fold change” value is -0.145.

On to RRIRTRPPRLPRPRPRPEYYPRP, for which the “shrunken log2 fold change” value is -0.855.

For the sequence RRIRWRPPRLPRPRPRPYKPPRP, the “shrunken log2 fold change” value is -0.539.

As for RRIRVRPPRLPRPRPRPDNVPRP, the “shrunken log2 fold change” value was determined as 0.171.

Regarding RRIRQRPPRLPRPRPRPVKMPRP, the “shrunken log2 fold change” value is -0.211.

With RRIRPRPPRLPRPRPRPNITPRP, the “shrunken log2 fold change” value is -0.293.

With RRIRCRPPRLPRPRPRPKFTPRP, the “shrunken log2 fold change” value was -0.391.

For the sequence RRIRDRPPRLPRPRPRPNERPRP, the “shrunken log2 fold change” value turned out to be 0.141.

With RRIRARPPRLPRPRPRPRLMPRP, the “shrunken log2 fold change” value worked out at 0.216.

For the sequence RRIRCRPPRLPRPRPRPLISPRP, the “shrunken log2 fold change” value was -0.3.

Take RRIRTRPPRLPRPRPRPRQNPRP: the “shrunken log2 fold change” value stood at 0.067.

On to RRIRARPPRLPRPRPRPWEPPRP, for which the “shrunken log2 fold change” value amounted to 0.18.

As to RRIRRRPPRLPRPRPRPTSIPRP, the “shrunken log2 fold change” value is -0.107.

As for RRIRPRPPRLPRPRPRPIEMPRP, the “shrunken log2 fold change” value came out at 0.00861.

Consider RRIRFRPPRLPRPRPRPENRPRP, for which the “shrunken log2 fold change” value is -0.0215.

Take RRIRARPPRLPRPRPRPQRFPRP: the “shrunken log2 fold change” value was determined as 0.0296.

With RRIRQRPPRLPRPRPRPICPPRP, the “shrunken log2 fold change” value worked out at 0.128.

Take RRIRARPPRLPRPRPRPHMEPRP: the “shrunken log2 fold change” value was 0.157.

In the case of RRIRQRPPRLPRPRPRPIFEPRP, the “shrunken log2 fold change” value is -0.224.

Turning to RRIRIRPPRLPRPRPRPYWCPRP, the “shrunken log2 fold change” value turned out to be 0.0219.

As to RRIRPRPPRLPRPRPRPYQNPRP, the “shrunken log2 fold change” value is -0.339.

On to RRIRWRPPRLPRPRPRPIEVPRP, for which the “shrunken log2 fold change” value was 0.0279.

Consider RRIRMRPPRLPRPRPRPCQIPRP, for which the “shrunken log2 fold change” value was -0.0194.

The values above are taken from the supplement of paper PMC9112550, “Optimization of the antimicrobial peptide Bac7 by deep mutational scanning” (BMC Biology, 2022).
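Further: peptides expressed intracellularly from a pBAD plasmid library in pooled LB shake-flask culture, induced with 0.3% L-arabinose, DNA abundance read by NGS, three biological replicates, DESeq2 with apeglm shrinkage.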
